# In IntAct's records for PubMed 20676133:
# B1: RING finger protein 11 (Homo sapiens), Q9Y3C5 (parent)
# chain: MGNCLKSPTSDDISLLHESQSDRASFGEGTEPDQEPPPPYQEQVPVPVYHPTPSQTRLATQLTEEEQIRIAQRIGLIQHLPKGVYDPGRDGSEKKIRECVICMMDFVYGDPIRFLPCMHIYHLDCIDDWLMRSFTCPSCMEPVDAALLSSYETN
# Variants of: B1
# Conditions: with itch_human ITCH
row,effect of a mutation on the interaction,Variant
1,disrupting interaction,Y40A

# Variants of: B1
# Conditions: with nedd4_human NEDD4, P46934
# nedd4_human NEDD4, P46934, sequence (P46934 whole entry): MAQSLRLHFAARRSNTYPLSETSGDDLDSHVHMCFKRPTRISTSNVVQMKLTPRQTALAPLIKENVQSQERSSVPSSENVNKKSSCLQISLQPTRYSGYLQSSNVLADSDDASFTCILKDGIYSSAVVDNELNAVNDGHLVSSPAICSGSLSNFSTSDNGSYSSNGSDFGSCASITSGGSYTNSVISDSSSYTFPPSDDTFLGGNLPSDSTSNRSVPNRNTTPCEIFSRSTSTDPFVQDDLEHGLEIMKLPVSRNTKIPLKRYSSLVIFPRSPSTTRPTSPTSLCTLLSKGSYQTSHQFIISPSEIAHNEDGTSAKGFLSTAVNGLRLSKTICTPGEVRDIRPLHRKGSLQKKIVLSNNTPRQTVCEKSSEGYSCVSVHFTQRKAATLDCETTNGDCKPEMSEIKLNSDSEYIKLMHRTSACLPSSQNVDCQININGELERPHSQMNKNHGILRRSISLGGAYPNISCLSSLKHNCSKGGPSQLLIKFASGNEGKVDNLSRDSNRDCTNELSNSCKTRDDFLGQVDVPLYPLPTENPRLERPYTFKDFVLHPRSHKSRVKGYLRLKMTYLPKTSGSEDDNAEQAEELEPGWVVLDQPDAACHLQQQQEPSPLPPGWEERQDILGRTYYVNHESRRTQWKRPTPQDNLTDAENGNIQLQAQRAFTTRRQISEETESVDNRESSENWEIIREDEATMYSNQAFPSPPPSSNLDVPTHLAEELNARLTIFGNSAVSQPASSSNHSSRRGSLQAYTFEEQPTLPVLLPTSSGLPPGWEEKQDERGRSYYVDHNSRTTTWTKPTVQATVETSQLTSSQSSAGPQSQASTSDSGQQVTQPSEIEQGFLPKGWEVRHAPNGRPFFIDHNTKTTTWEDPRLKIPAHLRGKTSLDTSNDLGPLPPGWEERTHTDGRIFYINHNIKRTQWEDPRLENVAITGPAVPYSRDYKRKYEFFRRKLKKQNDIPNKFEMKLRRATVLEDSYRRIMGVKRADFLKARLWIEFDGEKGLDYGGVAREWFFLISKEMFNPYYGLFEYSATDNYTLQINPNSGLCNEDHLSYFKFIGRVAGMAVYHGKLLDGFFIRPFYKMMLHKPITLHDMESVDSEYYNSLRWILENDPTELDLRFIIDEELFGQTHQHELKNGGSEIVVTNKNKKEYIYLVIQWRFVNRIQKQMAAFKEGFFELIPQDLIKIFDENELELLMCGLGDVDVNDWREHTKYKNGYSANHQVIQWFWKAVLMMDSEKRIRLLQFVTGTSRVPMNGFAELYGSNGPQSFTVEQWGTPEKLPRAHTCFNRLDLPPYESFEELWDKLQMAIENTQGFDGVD
row,effect of a mutation on the interaction,Variant
1,disrupting interaction,Y40A

# Variants of: B1
# Conditions: with smuf2_human SMURF2, Q9HAU4
# smuf2_human SMURF2, Q9HAU4, sequence (Q9HAU4 whole entry): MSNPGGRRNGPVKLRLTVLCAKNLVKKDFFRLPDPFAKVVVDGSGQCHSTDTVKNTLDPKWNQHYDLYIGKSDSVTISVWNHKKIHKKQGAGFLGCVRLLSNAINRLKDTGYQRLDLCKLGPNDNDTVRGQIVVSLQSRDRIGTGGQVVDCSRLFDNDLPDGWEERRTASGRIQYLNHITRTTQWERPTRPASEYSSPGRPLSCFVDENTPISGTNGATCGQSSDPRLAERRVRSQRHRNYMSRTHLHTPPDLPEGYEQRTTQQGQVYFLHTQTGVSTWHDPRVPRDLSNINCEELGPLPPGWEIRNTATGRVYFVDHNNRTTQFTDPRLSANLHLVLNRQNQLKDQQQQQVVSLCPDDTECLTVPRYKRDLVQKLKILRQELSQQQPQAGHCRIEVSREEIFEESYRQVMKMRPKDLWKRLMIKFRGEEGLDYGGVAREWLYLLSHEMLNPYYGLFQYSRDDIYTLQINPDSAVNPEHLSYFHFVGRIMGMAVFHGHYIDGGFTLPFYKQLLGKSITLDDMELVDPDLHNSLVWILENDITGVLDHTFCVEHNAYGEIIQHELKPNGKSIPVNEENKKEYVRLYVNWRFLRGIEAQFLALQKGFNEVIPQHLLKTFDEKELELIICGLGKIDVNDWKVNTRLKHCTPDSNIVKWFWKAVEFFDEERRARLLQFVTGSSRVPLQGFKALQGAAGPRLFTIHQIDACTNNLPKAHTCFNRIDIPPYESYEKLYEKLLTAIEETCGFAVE
row,effect of a mutation on the interaction,Variant
1,disrupting interaction,Y40A
